Measured values taken from the supplement of paper PMC10126150.
± gives the standard deviation of the averaged measurements.

Test system: ATP
Experiment: switch fluorescence ratio, 500 uM ATP over buffer (Cy3 cluster intensity, sum of 5 cycles each) (fold (ratio)); higher = stronger signal-on switching upon ATP binding; sequences stand for … in TCGTCGGCAGCGTCAGATGTGTATAAGAGACAGTTTTTTTTTTTTTTTTTTTTTTTTT…TC
Conditions: aptamer strand: ATP DNA aptamer (quencher-CACCTGGGGGAGTATTGCGGAGGAAGG + anchor), 100 nM annealed; ATP concentration: 500 uM
Outline: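 Imaging in selection buffer was followed by imaging after 15 min with 500 uM ATP at 22 °C, for Cy3-labelled switching-strand clusters annealed to 100 nM quencher-labelled ATP aptamer on a modified Illumina MiSeq flow-cell. Five of these buffer/ATP cycles ran, separated by NaOH stripping and re-annealing. The fluorescence ratio per cluster is summed target-cycle over summed buffer-cycle Cy3 intensity, averaged per switch-domain sequence; clusters outside 100-1000 RFU were removed.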
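Further: ATP exposure 15 min at 22 °C before imaging.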

| Sequence | switch fluorescence ratio |
| --- | --- |
| TGCCGGGGCT | 0.967 ± 0.037 |
| TGCCGGGTGG | 1 ± 0.063 |
| TGCCGTTTTT | 1.02 ± 0.069 |
| TGCCTATGGG | 0.977 ± 0.029 |
| TGCCTGGGGA | 1.2 ± 0.25 |
| TGCCTGGTAT | 0.984 ± 0.019 |
| TGCCTGTGCG | 1.04 ± 0.031 |
| TGCGAATAGG | 1.0088 ± 0.00022 |
| TGCGAATTAG | 0.998 ± 0.019 |
| TGCGACTCGG | 0.9988 ± 0.0056 |
| TGCGACTGGT | 0.942 ± 0.024 |
| TGCGACTTTG | 1.03 ± 0.018 |
| TGCGAGGGGG | 1.01 ± 0.033 |
| TGCGAGGGTT | 1.01 ± 0.093 |
| TGCGAGTATC | 1.02 ± 0.018 |
| TGCGATTGTT | 1.01 ± 0.056 |
| TGCGATTTTT | 1.01 ± 0.042 |
| TGCGCACGGG | 1.03 ± 0.019 |
| TGCGCCAGGG | 1.263 ± 0.0037 |
| TGCGCCATTT | 1.13 ± 0.26 |
| TGCGCTGTA | 1.02 ± 0.018 |
| TGCGCTTATA | 1.09 ± 0.015 |
| TGCGCTTGTG | 0.97 ± 0.025 |
| TGCGGAATAT | 1.14 ± 0.064 |
| TGCGGATATG | 0.982 ± 0.023 |

| Sequence | switch fluorescence ratio |
| --- | --- |
| TGCGGATGGT | 0.98 ± 0.016 |
| TGCGGGCGGC | 0.98 ± 0.024 |
| TGCGGGGAGA | 1.02 ± 0.024 |
| TGCGGGGCGG | 1.02 ± 0.034 |
| TGCGGGGGG | 0.9855 ± 0.0037 |
| TGCGGGGGGT | 1.025 ± 0.0086 |
| TGCGGGGGTC | 1.04 ± 0.088 |
| TGCGGGTGAT | 0.9857 ± 0.004 |
| TGCGGGTTAA | 1.02 ± 0.024 |
| TGCGGGTTTC | 1.04 ± 0.017 |
| TGCGGTAAA | 1.09 ± 0.14 |
| TGCGGTATGT | 1.019 ± 0.0014 |
| TGCGGTGATG | 0.985 ± 0.016 |
| TGCGGTGTAG | 1.01 ± 0.011 |
| TGCGTAGAGG | 1.037 ± 0.006 |
| TGCGTATATT | 0.98 ± 0.017 |
| TGCGTCAACT | 1.01 ± 0.023 |
| TGCGTCAGCC | 1.04 ± 0.12 |
| TGCGTCTATT | 1.05 ± 0.078 |
| TGCGTTGCGG | 0.978 ± 0.029 |
| TGCTAAAGGG | 0.984 ± 0.036 |
| TGCTAAATTG | 1.015 ± 0.0015 |
| TGCTACAAGG | 1.03 ± 0.011 |
| TGCTAGCCGG | 1 ± 0.015 |
| TGCTAGCCTG | 0.9955 ± 0.004 |

| Sequence | switch fluorescence ratio |
| --- | --- |
| TGCTAGGCG | 1.02 ± 0.032 |
| TGCTAGTGGT | 1.01 ± 0.016 |
| TGCTATATGT | 0.993 ± 0.013 |
| TGCTATCATC | 0.989 ± 0.02 |
| TGCTCCTTGC | 1.08 ± 0.062 |
| TGCTCGGGGG | 1.15 ± 0.17 |
| TGCTCTGCTA | 1.683 ± 0.0023 |
| TGCTCTTAGT | 1.04 ± 0.079 |
| TGCTGAAAAC | 0.974 ± 0.028 |
| TGCTGAAGGG | 1.04 ± 0.03 |
| TGCTGGATGG | 0.975 ± 0.032 |
| TGCTGGGGCT | 0.9847 ± 0.0033 |
| TGCTGTCGGC | 1.03 ± 0.029 |
| TGCTGTTTTT | 0.98095 ± 0.00061 |
| TGCTTAACAT | 1.01 ± 0.019 |
| TGCTTATCGC | 0.995 ± 0.024 |
| TGCTTCAGGG | 1.03 ± 0.014 |
| TGCTTCCCTC | 1.1 ± 0.018 |
| TGCTTCTAAT | 1.02 ± 0.021 |
| TGCTTGAGCA | 0.974 ± 0.019 |
| TGCTTGCCTT | 0.9886 ± 0.0096 |
| TGCTTGGAGG | 0.996 ± 0.014 |
| TGCTTGGGGA | 0.983 ± 0.082 |
| TGCTTGTGGG | 1.026 ± 0.0015 |
| TGCTTGTTTT | 0.9912 ± 0.0038 |

| Sequence | switch fluorescence ratio |
| --- | --- |
| TGCTTTATCT | 1.012 ± 0.0023 |
| TGCTTTCGTC | 0.945 ± 0.031 |
| TGCTTTGGTT | 1.01 ± 0.055 |
| TGCTTTTACG | 1.04 ± 0.064 |
| TGGAAAACCG | 1.08 ± 0.022 |
| TGGAAAAGGA | 0.9626 ± 0.0095 |
| TGGAAAATTT | 1.01 ± 0.0059 |
| TGGAAAGGGA | 1.01 ± 0.044 |
| TGGAAATAGG | 0.981 ± 0.039 |
| TGGAAATCGC | 1 ± 0.04 |
| TGGAAATCGT | 1.07 ± 0.083 |
| TGGAACACCT | 1.13 ± 0.041 |
| TGGAACTATA | 1.02 ± 0.018 |
| TGGAAGGAGC | 1.07 ± 0.049 |
| TGGAAGGATT | 1.01 ± 0.015 |
| TGGAAGGGGG | 1.01 ± 0.051 |
| TGGAAGGGGT | 1.09 ± 0.14 |
| TGGAAGTGGG | 1.03 ± 0.042 |
| TGGAATAGGT | 0.999 ± 0.031 |
| TGGAATGCGG | 0.99792 ± 0.00061 |
| TGGAATGGGT | 0.987 ± 0.032 |
| TGGACCGGGC | 1 ± 0.025 |
| TGGACCTGAA | 1.1 ± 0.038 |
| TGGACGGCGC | 1.04 ± 0.016 |
| TGGACTCGGA | 1.03 ± 0.071 |
